Earlier results in patent US9394339B2, “Stabilized formulations of peptides and proteins protecting against non-enzymatic degradation” (Lyotropic Therapeutics, Inc., priority 2007, dated 2016).
Read-outs that look alike come from different tables or passages of the source.

Conditions: for T1/2 (half-life, deamidation): buffer
[1] = aqueous solution, pH 7.4, 37° C., Tris-HCl buffer

Row | Molecule | T1/10 (time to 10% degradation by deamidation) [1] [days] | T1/2 (half-life, deamidation) (pH 7.4) [days] | T1/10 (time to 10% degradation by deamidation) (pH 7.4) [days]
1 | Myeloperoxidase (1MHL): human protein (protein, UniProt P05164 165-745, looked up) Myeloperoxidase: VTCPEQDKYRTITGMCNNRRSPTLGASNRAFVRWLPAEYEDGFSLPYGWTPGVKRNGFPVALARAVSNEIVRFPTDQLTPDQERSLMFMQWGQLLDHDLDFTPEPAARASFVTGVNCETSCVQQPPCFPLKIPPNDPRIKNQADCIPFFRSCPACPGSNITIRNQINALTSFVDASMVYGSEEPLARNLRNMSNQLGLLAVNQRFQDNGRALLPFDNLHDDPCLLTNRSARIPCFLAGDTRSSEMPELTSMHTLLLREHNRLATELKSLNPRWDGERLYQEARKIVGAMVQIITYRDYLPLVLGPTAMRKYLPTYRSYNDSVDPRIANVFTNAFRYGHTLIQPFMFRLDNRYQPMEPNPRVPLSRVFFASWRVVLEGGIDPILRGLMATPAKLNRQNQIAVDEIRERLFEQVMRIGLDLPALNMQRSRDHGLPGYNAWRRFCGLPQPETVGQLGTVLRNLKLARKLMEQYGTPNNIDIWMGGVSEPLKRKGRVGPLLACIIGTQFRKLRDGDRFWWENEGVFSMQQRQALAQISLPRIICDNTGITTVSKNNIFMSNSYPRDFVNCSTLPALNLASWREAS | 2.4 | – | –
2 | Karyopherin 2 (1QBK): human protein (protein, UniProt Q92973 1-898, looked up) Transportin-1: MVWDRQTKMEYEWKPDEQGLQQILQLLKESQSPDTTIQRTVQQKLEQLNQYPDFNNYLIFVLTKLKSEDEPTRSLSGLILKNNVKAHFQNFPNGVTDFIKSECLNNIGDSSPLIRATVGILITTIASKGELQNWPDLLPKLCSLLDSEDYNTCEGAFGALQKICEDSAEILDSDVLDRPLNIMIPKFLQFFKHSSPKIRSHAVACVNQFIISRTQALMLHIDSFIENLFALAGDEEPEVRKNVCRALVMLLEVRMDRLLPHMHNIVEYMLQRTQDQDENVALEACEFWLTLAEQPICKDVLVRHLPKLIPVLVNGMKYSDIDIILLKGDVEEDETIPDSEQDIRPRFHRSRTVAQQHDEDGIEEEDDDDDEIDDDDTISDWNLRKCSAAALDVLANVYRDELLPHILPLLKELLFHHEWVVKESGILVLGAIAEGCMQGMIPYLPELIPHLIQCLSDKKALVRSITCWTLSRYAHWVVSQPPDTYLKPLMTELLKRILDSNKRVQEAACSAFATLEEEACTELVPYLAYILDTLVFAFSKYQHKNLLILYDAIGTLADSVGHHLNKPEYIQMLMPPLIQKWNMLKDEDKDLFPLLECLSSVATALQSGFLPYCEPVYQRCVNLVQKTLAQAMLNNAQPDQYEAPDKDFMIVALDLLSGLAEGLGGNIEQLVARSNILTLMYQCMQDKMPEVRQSSFALLGDLTKACFQHVKPCIADFMPILGTNLNPEFISVCNNATWAIGEISIQMGIEMQPYIPMVLHQLVEIINRPNTPKTLLENTAITIGRLGYVCPQEVAPMLQQFIRPWCTSLRNIRDNEEKDSAFRGICTMISVNPSGVIQDFIFFCDAVASWINPKDDLRDMFCKILHGFKNQVGDENWRRFSDQFPLPLKERLAAFYGV | 0.81 | – | –
3 | Pepsinogen (1HTR): human protein (protein, UniProt P20142 17-388, looked up, pro-form) pro-form: AVVKVPLKKFKSIRETMKEKGLLGEFLRTHKYDPAWKYRFGDLSVTYEPMAYMDAAYFGEISIGTPPQNFLVLFDTGSSNLWVPSVYCQSQACTSHSRFNPSESSTYSTNGQTFSLQYGSGSLTGFFGYDTLTVQSIQVPNQEFGLSENEPGTNFVYAQFDGIMGLAYPALSVDEATTAMQGMVQEGALTSPVFSVYLSNQQGSSGGAVVFGGVDSSLYTGQIYWAPVTQELYWQIGIEEFLIGGQASGWCSEGCQAIVDTGTSLLTVPQQYMSALLQATGAQEDEYGQFLVNCNSIQNLPSLTFIINGVEFPLPPSSYILSNNGYCTVGVEPTYLSSQNGQPLWILGDVFLRSYYSVYDLGNNRVGFATAA | 3.0 | – | –
4 | Dihydrofolate reductase (1DRF): human protein (protein, UniProt P00374 1-187, looked up) Dihydrofolate reductase: MVGSLNCIVAVSQNMGIGKNGDLPWPPLRNEFRYFQRMTTTSSVEGKQNLVIMGKKTWFSIPEKNRPLKGRINLVLSRELKEPPQGAHFLSRSLDDALKLTEQPELANKVDMVWIVGGSSVYKEAMNHPGHLKLFVTRIMQDFESDTFFPEIDLEKYKLLPEYPGVLSDVQEEKGIKYKFEVYEKND | – | 25 | 3.8
5 | Interleukin-16 (1I16): human protein (protein, UniProt Q14005 1212-1332, looked up) Interleukin-16: SAASASAASDVSVESTAEATVCTVTLEKMSAGLGFSLEGGKGSLHGDKPLTINRIFKGAASEQSETVQPGDEILQLGGTAMQGLTRFEAWNIIKALPDGPVTIVIRRKSLQSKETTAAGDS | 2.6 | – | –
6 | Inositol monophosphatase (1IMB): human protein (protein, UniProt P29218 1-277, looked up) Inositol monophosphatase 1: MADPWQECMDYAVTLARQAGEVVCEAIKNEMNVMLKSSPVDLVTATDQKVEKMLISSIKEKYPSHSFIGEESVAAGEKSILTDNPTWIIDPIDGTTNFVHRFPFVAVSIGFAVNKKIEFGVVYSCVEGKMYTARKGKGAFCNGQKLQVSQQEDITKSLLVTELGSSRTPETVRMVLSNMEKLFCIPVHGIRSVGTAAVNMCLVATGGADAYYEMGIHCWDVAGAGIIVTEAGGVLMDVTGGPFDLMSRRVIAANNRILAERIAKEIQVIPLQRDDED | – | 15 | 2.3
7 | Farnesyltransferase (1EZF): human protein (protein, UniProt P37268 1-417, looked up) Squalene synthase: MEFVKCLGHPEEFYNLVRFRIGGKRKVMPKMDQDSLSSSLKTCYKYLNQTSRSFAAVIQALDGEMRNAVCIFYLVLRALDTLEDDMTISVEKKVPLLHNFHSFLYQPDWRFMESKEKDRQVLEDFPTISLEFRNLAEKYQTVIADICRRMGIGMAEFLDKHVTSEQEWDKYCHYVAGLVGIGLSRLFSASEFEDPLVGEDTERANSMGLFLQKTNIIRDYLEDQQGGREFWPQEVWSRYVKKLGDFAKPENIDLAVQCLNELITNALHHIPDVITYLSRLRNQSVFNFCAIPQVMAIATLAACYNNQQVFKGAVKIRKGQAVTLMMDATNMPAVKAIIYQYMEEIYHRIPDSDPSSSKTRQIISTIRTQNLPNCQLISRSHYSPIYLSFVMLLAALSWQYLTTLSQVTEDYVQTGEH | 4.0 | – | –
8 | Acetylcholinesterase (1F8U): human protein (protein, UniProt P22303 32-614, looked up) Acetylcholinesterase: EGREDAELLVTVRGGRLRGIRLKTPGGPVSAFLGIPFAEPPMGPRRFLPPEPKQPWSGVVDATTFQSVCYQYVDTLYPGFEGTEMWNPNRELSEDCLYLNVWTPYPRPTSPTPVLVWIYGGGFYSGASSLDVYDGRFLVQAERTVLVSMNYRVGAFGFLALPGSREAPGNVGLLDQRLALQWVQENVAAFGGDPTSVTLFGESAGAASVGMHLLSPPSRGLFHRAVLQSGAPNGPWATVGMGEARRRATQLAHLVGCPPGGTGGNDTELVACLRTRPAQVLVNHEWHVLPQESVFRFSFVPVVDGDFLSDTPEALINAGDFHGLQVLVGVVKDEGSYFLVYGAPGFSKDNESLISRAEFLAGVRVGVPQVSDLAAEAVVLHYTDWLHPEDPARLREALSDVVGDHNVVCPVAQLAGRLAAQGARVYAYVFEHRASTLSWPLWMGVPHGYEIEFIFGIPLDPSRNYTAEEKIFAQRLMRYWANFARTGDPNEPRDPKAPQWPPYTAGAQQYVSLDLRPLEVRRGLRAQACAFWNRFLPKLLSATDTLDEAERQWKAEFHRWSSYMVHWKNQFDHYSKQDRCSDL | 3.5 | – | –
9 | S-adenosylhomocysteine hydrolase (1A7A): human protein (protein, UniProt P23526 2-432, looked up) Adenosylhomocysteinase: SDKLPYKVADIGLAAWGRKALDIAENEMPGLMRMRERYSASKPLKGARIAGCLHMTVETAVLIETLVTLGAEVQWSSCNIFSTQDHAAAAIAKAGIPVYAWKGETDEEYLWCIEQTLYFKDGPLNMILDDGGDLTNLIHTKYPQLLPGIRGISEETTTGVHNLYKMMANGILKVPAINVNDSVTKSKFDNLYGCRESLIDGIKRATDVMIAGKVAVVAGYGDVGKGCAQALRGFGARVIITEIDPINALQAAMEGYEVTTMDEACQEGNIFVTTTGCIDIILGRHFEQMKDDAIVCNIGHFDVEIDVKWLNENAVEKVNIKPQVDRYRLKNGRRIILLAEGRLVNLGCAMGHPSFVMSNSFTNQVMAQIELWTHPDKYPVGVHFLPKKLDEAVAEAHLGKLNVKLTKLTEKQAQYLGMSCDGPFKPDHYRY | 4.3 | – | –
10 | Bone morphogenetic protein 7 (1BMP): human protein (protein, UniProt P18075 293-431, looked up) Bone morphogenetic protein 7: STGSKQRSQNRSKTPKNQEALRMANVAENSSSDQRQACKKHELYVSFRDLGWQDWIIAPEGYAAYYCEGECAFPLNSYMNATNHAIVQTLVHFINPETVPKPCCAPTQLNAISVLYFDDSSNVILKKYRNMVVRACGCH | 3.2 | – | –
11 | Fructose bisphosphate aldolase (4ALD): human protein (protein, UniProt P04075 2-364, looked up) Fructose-bisphosphate …: PYQYPALTPEQKKELSDIAHRIVAPGKGILAADESTGSIAKRLQSIGTENTEENRRFYRQLLLTADDRVNPCIGGVILFHETLYQKADDGRPFPQVIKSKGGVVGIKVDKGVVPLAGTNGETTTQGLDGLSERCAQYKKDGADFAKWRCVLKIGEHTPSALAIMENANVLARYASICQQNGIVPIVEPEILPDGDHDLKRCQYVTEKVLAAVYKALSDHHIYLEGTLLKPNMVTPGHACTQKFSHEEIAMATVTALRRTVPPAVTGITFLSGGQSEEEASINLNAINKCPLLKPWALTFSYGRALQASALKAWGGKKENLKAAQEEYVKRALANSLACQGKYTPSGQAGAAASESLFVSNHAY | – | 7.6 | 1.2
12 | Catalase (1QQW): human protein (protein, UniProt P04040 2-527, looked up) Catalase: ADSRDPASDQMQHWKEQRAAQKADVLTTGAGNPVGDKLNVITVGPRGPLLVQDVVFTDEMAHFDRERIPERVVHAKGAGAFGYFEVTHDITKYSKAKVFEHIGKKTPIAVRFSTVAGESGSADTVRDPRGFAVKFYTEDGNWDLVGNNTPIFFIRDPILFPSFIHSQKRNPQTHLKDPDMVWDFWSLRPESLHQVSFLFSDRGIPDGHRHMNGYGSHTFKLVNANGEAVYCKFHYKTDQGIKNLSVEDAARLSQEDPDYGIRDLFNAIATGKYPSWTFYIQVMTFNQAETFPFNPFDLTKVWPHKDYPLIPVGKLVLNRNPVNYFAEVEQIAFDPSNMPPGIEASPDKMLQGRLFAYPDTHRHRLGPNYLHIPVNCPYRARVANYQRDGPMCMQDNQGGAPNYYPNSFGAPEQQPSALEHSIQYSGEVRRFNTANDDNVTQVRAFYVNVLNEEQRKRLCENIAGHLKDAQIFIQKKAVKNFTEVHPDYGSHIQALLDKYNAEKPKNAIHTFVQSGSHLAAREKANL | 3.8 | – | –
